B1: TBA detection probe ii (51-mer) (ssDNA)
DNA: GGTTGGTGTGGTTGGGGGCGGCGACCTAAGGTGTCGTGCGTAAGTTTTTAA
B2: TBA 15-mer (ssDNA)
DNA: GGTTGGTGTGGTTGG
B3: TBA detection probe iii (69-mer) (ssDNA)
DNA: GGTTGGTGTGGTTGGTTTTTTTTTGTCTTTTTTTTTTTTCTGTTTTTAAAAACTTACGCACGACACCTT
B4: AChE detection probe (75-mer) (ssDNA)
DNA: GGTTGACTGTAGCTCTGGCAGACGTAGTGTGAAGGTACCGGGCGGCGACCTAAGGTGTCGTGCGTAAGTTTTTAA

Experiments:
[1] = biological target: T1, alpha-thrombin (Homo sapiens, UniProt P00734;P00734 P00734:328-363,P00734:364-622); assay: nanopore translocation on lambda-DNA carrier; 100 mM KCl, 10 mM Tris, 1 mM EDTA pH 8
[2] = biological target: T1, alpha-thrombin; assay: EMSA; 200 nM TBA, 0-500 nM thrombin; 50 mM Tris, 140 mM NaCl, 1 mM MgCl2 pH 7.4
[3] = biological target: acetylcholinesterase (AChE) (UniProt O42275 O42275:24-633); assay: EMSA; AChE 660 nM, modified aptamer 0-5000 nM; 2.7 mM KCl, 4 mM MgCl2 PBS pH 7.4, 1 h; conditions: tags: Sigma-Aldrich, UK; M.W. 280 kDa as stated; chain copies: 4; aptamer with extension hybridised to lambda-DNA 3' end
acetylcholinesterase (AChE), sequence (O42275 24-633, one chain of several): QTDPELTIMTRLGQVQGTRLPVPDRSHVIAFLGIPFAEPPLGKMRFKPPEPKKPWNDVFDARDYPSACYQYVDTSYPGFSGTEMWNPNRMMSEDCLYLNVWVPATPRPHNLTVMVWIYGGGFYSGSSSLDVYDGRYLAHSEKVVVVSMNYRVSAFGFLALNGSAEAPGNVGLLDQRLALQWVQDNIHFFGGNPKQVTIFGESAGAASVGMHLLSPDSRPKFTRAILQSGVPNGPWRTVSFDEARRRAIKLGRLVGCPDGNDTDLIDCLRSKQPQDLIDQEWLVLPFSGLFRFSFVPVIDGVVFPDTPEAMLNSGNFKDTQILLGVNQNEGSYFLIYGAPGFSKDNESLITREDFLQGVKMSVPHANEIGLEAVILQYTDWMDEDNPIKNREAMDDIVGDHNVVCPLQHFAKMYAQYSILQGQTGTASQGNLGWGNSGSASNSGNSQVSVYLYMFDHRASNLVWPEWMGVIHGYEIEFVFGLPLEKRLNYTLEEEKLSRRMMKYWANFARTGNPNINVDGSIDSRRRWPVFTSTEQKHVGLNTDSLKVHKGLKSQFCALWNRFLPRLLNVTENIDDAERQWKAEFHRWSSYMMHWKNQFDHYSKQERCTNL
Experimental: FIG. 20: Electrophoretic mobility shift assay (EMSA) to confirm the binding of the aptamers to thrombin and AChE targets. All gels shown above include a 25 bp ladder and indicated as M in the gel. (i) Thrombin (750 nM) was incubated with different concentration of modified TBA aptamer (top left) ranging from 0-5000 nM in 140 mM NaCl, 20 mM MgCl2, 20 mM PBS buffer pH 7.4 for 45 mins. The 7 lanes on the gel represent the following concentrations of aptamer (from left to right): 0, 50, 100, 250, 500, 1000 and 5000 nM. The samples were then loaded on a 10% native polyacrylamide cast gel and ran for 75 min at 80V and stained with SYBR gold and imaged under UV. […] (ii) modified TBA (200 nM) was then incubated with different concentration of thrombin in the same binding buffer as (i) for 45 min. The […] consist of different thrombin concentration from left to right: 0, 250, 500, 1000, 1500, 2500, 5000 and 7500 nM. The samples were then loaded to a 10% native polyacrylamide cast gels and ran for 75 min at 80V and stained with SYBR gold and imaged. (iii) AChE (660 nM) was incubated with different concentration of modified AChE aptamer ranging from 0-5000 nM in 2.7 mM KCl, 4 mM MgCl2 PBS buffer pH 7.4 for 1 hour. […]

Row | Binder | binding result [1] | also measured
1 | B1 | binds | –
2 | B2 | – | binding result [2]: binds
3 | B3 | binds | –
4 | B4 | – | binding result [3]: binds

From patent US20200041497, “ANALYTE DETECTION METHOD” (IMPERIAL COLLEGE INNOVATIONS LIMITED, published 2020)
